Data on three molecules can be found in patent US20260232732A1 (FUNDACI INSTITUT DE RECERCA CONTRA LA LEUC MIA JOSEP …, published 2026).

For test [1], the target named is T1, Peptide 3-BSA (SSMEDYVNFN-C conjugated to BSA) (human).
T1 peptide: SSMEDYVNFNC(BSA)
Description: ELISA; Ab 0.125 ug/mL; repII. The procedure: (§1) In brief, plates with each non-conjugated peptide (50 μg/mL) or BSA-conjugated peptide (5 μg/mL) were coated in 0.58M carbonate-bicarbonate buffer pH9.5, 100 μL/well, at 4° C. […] After washing, wells were incubated with the 3, 3′,5,5′-Tetramethylbenzidine (TMB) HRP substrate and reactions were stopped with 2M HCl and OD450 was recorded.

Test [2] concerns the target T2, Peptide 4-BSA (SMEDYVNFNF-C conjugated to BSA) (human).
T2 peptide: SMEDYVNFNFC(BSA)
Nature of the test: ELISA; Ab 0.125 ug/mL; repII. The procedure:
as §1

For test [3], the target named is T3, Peptide 1, non-conjugated (MADDYGSEST-C) (human).
T3 construct: With the extra C-terminal Cys
T3 peptide: MADDYGSESTC
Description: ELISA; Ab 0.125 ug/mL; repII. The method, then:
as §1

Test [4] deals with T4, Peptide 2, non-conjugated (GSESTSSMED-C) (human).
T4 construct: With the extra C-terminal Cys
T4 peptide: GSESTSSMEDC
Nature of the test: ELISA; Ab 0.125 ug/mL; repII. The method, then: as §1

The target of test [5] is T5, Peptide 3, non-conjugated (SSMEDYVNFN-C) (human).
T5 construct: With the extra C-terminal Cys
T5 peptide: SSMEDYVNFNC
Description: ELISA; Ab 0.125 ug/mL; repII. The procedure: as §1

Test [6] deals with T6, Peptide 4, non-conjugated (SMEDYVNFNF-C) (human).
T6 construct: With the extra C-terminal Cys
T6 peptide: SMEDYVNFNFC
Nature of the test: ELISA; Ab 0.125 ug/mL; repII. The method, then: as §1

Test [7] has as its target T7, BSA (negative control coating) (bovine, UniProt P02769 25-607).
T7 construct: also called Negative control BSA
Description: ELISA; Ab 0.125 ug/mL; repII. The method, then: as §1

For test [8], the target named is T8, antigen peptide-BSA (immunisation peptide #1 MADDYGSESTSSMEDYVNFNF-C conjugated to BSA) (human, extra C-terminal Cys conjugated to BSA).
T8 construct: also called Positive control antigen peptide-BSA; MADDY peptide
T8 peptide: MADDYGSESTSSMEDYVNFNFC
Nature of the test: ELISA; Ab 0.125 ug/mL; repII. The method, then:
as §1

Test [9] concerns the target T9, Peptide 1-BSA (MADDYGSEST-C conjugated to BSA) (human).
T9 peptide: MADDYGSESTC(BSA)
Nature of the test: ELISA; Ab 0.125 ug/mL; repII. The method, then: as §1

The target of test [10] is T10, Peptide 2-BSA (GSESTSSMED-C conjugated to BSA) (human).
T10 peptide: GSESTSSMEDC(BSA)
Description: ELISA; Ab 0.125 ug/mL; repII. The procedure:
as §1

The target in test [11] is T11, human CCR9 on cells (MOLT-4, SupT1) (human, UniProt P51686 1-369).
T11 construct: whole, on cells; also called C-C chemokine receptor type 9; CDw199
T11 sequence (looked up): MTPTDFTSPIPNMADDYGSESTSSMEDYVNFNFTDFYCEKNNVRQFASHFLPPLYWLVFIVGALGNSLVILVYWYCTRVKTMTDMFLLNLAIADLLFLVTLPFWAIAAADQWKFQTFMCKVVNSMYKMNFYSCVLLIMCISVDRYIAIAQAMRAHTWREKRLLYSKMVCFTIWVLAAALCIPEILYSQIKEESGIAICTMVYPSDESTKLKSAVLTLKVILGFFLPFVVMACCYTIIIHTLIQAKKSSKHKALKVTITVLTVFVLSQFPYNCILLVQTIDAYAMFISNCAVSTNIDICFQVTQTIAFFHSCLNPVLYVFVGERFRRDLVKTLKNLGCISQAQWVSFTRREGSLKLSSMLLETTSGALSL
Description: flow cytometry on 300.19 cells overexpressing human CCR9 against CCR9-negative 300.19 WT cells, detection with anti-mouse-IgG(H+L) A647 [Cont.) B].

Test [12] addresses T12, biotin-peptide TSSMEDYVNF (human).
T12 peptide: Biotin-TSSMEDYVNF
Description: ELISA biotin-peptide; scFv 5 ug/mL; repII. The procedure: (§2) The peptides were synthesized naked or with a N-terminal Biotin modification with a purity of >98%. All four scFvs were verified by ELISA that can be detected with anti-His antibodies. ELISA was performed for scFv-peptide binding validation. Briefly, naked peptides were coated (50 μg/mL) in 0.58M carbonate-bicarbonate buffer pH9.5, 100 μL/well, 4° C. O/N. Then after blocking (3% BSA-PBS, 300 μL/well 37° C. 1.5 h) and washing (PBS+Tween-20 0.05% v/v (0.05% PBST), wells were incubated with each purified scFv antibody at concentration of 1 μg/mL in PBS at 37° C. 1 h. After washing (0.05% PBST), wells were incubated with secondary antibodies (goat anti-His IgG-HRP) in PBS, 37° C., 30 min. After washing, and incubation with TMB substrate, reactions were stopped with 2M HCl and reading was quantified at OD450.
(§3) ELISA with biotin-conjugated peptides (5 μg/mL) was performed very similar to described above with minor modifications.
(§4) A full curve ELISA was performed for each positive scFv/biotin-peptide pair in order to confirm previous results. Tables 15-17 show ELISA results of the dose-dependent full curve for each positive peptide with scFv “CCR9_HUM”, “Comp-2” and “Comp-3”, respectively.

The target of test [13] is T13, biotin-peptide SSMEDYVNFN (human).
T13 peptide: Biotin-SSMEDYVNFN
Description: ELISA biotin-peptide; scFv 5 ug/mL; repII. The method, then: as §2, §3, §4

In test [14] the target is T14, biotin-peptide SMEDYVNFNF (human).
T14 peptide: Biotin-SMEDYVNFNF
Nature of the test: ELISA biotin-peptide; scFv 5 ug/mL; repII. The procedure:
as §2, §3, §4

The target in test [15] is T15, biotin-peptide MEDYVNFNFT (human).
T15 peptide: Biotin-MEDYVNFNFT
Description: ELISA biotin-peptide; scFv 5 ug/mL; repII. The method, then: as §2, §3, §4

Test [16] deals with T16, biotin-peptide TSPIPNMADD (human).
T16 peptide: Biotin-TSPIPNMADD
Nature of the test: ELISA, biotin-peptide.

The target in test [17] is T17, biotin-peptide MADDYGSEST (human).
T17 peptide: Biotin-MADDYGSEST
Description: ELISA, biotin-peptide.

For test [18], the target named is T12, biotin-peptide TSSMEDYVNF
Nature of the test: ELISA, biotin-peptide.

Test [19] has as its target T18, biotin-peptide YVNFNFTDFY (human).
T18 peptide: Biotin-YVNFNFTDFY
Description: ELISA, biotin-peptide.

The target of test [20] is T19, biotin-peptide FNFTDFYCEK (human).
T19 peptide: Biotin-FNFTDFYCEK
Nature of the test: ELISA, biotin-peptide.

Test [21] concerns the target T20, biotin-peptide TDFYCEKNNV (human).
T20 peptide: Biotin-TDFYCEKNNV
Nature of the test: ELISA, biotin-peptide.

The target in another test is T21, biotin-peptide KNNVRQFAS (human).
T21 peptide: Biotin-KNNVRQFAS
Description: ELISA, biotin-peptide.

Where no end group is shown, it is not given here. The star is where a group is joined. Biotin = O=C1N[C@H]2[C@H](CS[C@H]2CCCCC(=O)*)N1

T7 sequence (P02769 25-607 limits assumed): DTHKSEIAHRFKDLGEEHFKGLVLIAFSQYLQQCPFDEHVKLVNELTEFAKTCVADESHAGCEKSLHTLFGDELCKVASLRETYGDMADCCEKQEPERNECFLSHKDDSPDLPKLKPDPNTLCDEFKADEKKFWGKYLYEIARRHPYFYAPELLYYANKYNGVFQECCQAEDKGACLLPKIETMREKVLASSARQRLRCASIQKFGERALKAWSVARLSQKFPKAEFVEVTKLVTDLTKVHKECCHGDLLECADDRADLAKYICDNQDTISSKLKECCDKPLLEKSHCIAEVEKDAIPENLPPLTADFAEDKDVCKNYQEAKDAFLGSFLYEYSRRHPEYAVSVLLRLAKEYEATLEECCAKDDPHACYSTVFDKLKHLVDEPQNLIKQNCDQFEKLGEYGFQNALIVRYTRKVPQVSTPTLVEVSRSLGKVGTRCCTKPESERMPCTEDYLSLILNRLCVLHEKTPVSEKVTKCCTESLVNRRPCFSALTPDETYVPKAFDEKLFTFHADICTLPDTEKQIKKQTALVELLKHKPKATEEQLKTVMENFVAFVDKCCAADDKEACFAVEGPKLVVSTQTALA

B1: anti-CCR9 antibody clone 115 (murine, from hybridoma #115) (antibody, V domains shown)
VH: QVQLKQSGPELVKPGTSVRVSCTASGYSFTDYIIYWVKQSHGRSLEWIGYIDPNNYNTRYSQKFKGKATLTVDKSSTSAFMHLNSLTSDDSAVYYCARDVYWGQGTTLTVSS
VL: DVVMTQTPLSLTVSLGDQASISCRSSQSLVHSNGKTYLQWYLQKPGQSPKLLIYKVSNRFSGVPDRFSGSGSGTDFTLKISRVEAEDLGVYFCAQSTHVWTFGGGTKLEIKR
notes: Mouse IgG1
As for B1, the OD450 in [1] worked out at 1.97 OD; in test [2], 2.39 OD; in test [3], 0.02 OD; in test [4], 0.01 OD; in test [5], 1.77 OD; in test [6], 1.84 OD. The OD450 was 0.01 OD in [7], 2.31 OD in test [8], 0.01 OD in test [9] and 0.01 OD in [10]. The binding result in test [11] is “binds”.

B2: CCR9_HUM2 scFv (humanized anti-CCR9 scFv, SEQ ID NO: 17 with C-terminal 6xHis tag) (scFv)
scFv: QVQLVQSGAEVKKPGASVKVSCTASGYSFTDYIIYWVKQAHGQSLEWMGYIDPNNYNTRYSQKFQGKVTITVDKSSTSAYMELNSLTSDDTAVYYCARDVYWGQGTTVTVSSGGGGSGGGGSGGGGSGGGGSDVVMTQTPLSLSVTPGQPASISCRSSQSLVHSNGKTYLQWYLQKPGQSPKLLIYKVSNRFSGVPDRFSGSGSGTDFTLKISRVEAEDVGVYFCAQSTHVWTFGGGTKVEIKRAHHHHHH
As for B2, the OD450 came out at 1.38 OD in [12], 1.82 OD in test [13], 1.79 OD in test [14] and 1.72 OD in [15].

B3: Comparative antibody 1 (Comp-1) scFv, SEQ ID NO: 10 from WO2023/037125 A1, His-tagged (scFv)
scFv: QVQLKESGPGLVQPSQTLSLTCTVSGFSVASYDMHWVRLPPGKGLEWMGIIWANGNTHYNSGLKSRLSISRDTSKSQVFLKMNSLQTEDTAIYFCTRGGFAYWGQGTLVTVSSGGGGSGGGGSGGGGSGGGGSDVVMTQTPVSLSVSLGGQVSISCRSSQSLVHNNGNTYLSWYLQKPGQSPQLLIYKVSNRFSGVSDRFSGSGSGTDFTLKISRVEPDDLGVYYCGQGTQYPTFGGGTKLELKHHHHHH
For B3, the binding result in [16], in [17], in test [18], in [19], in [20] and in test [21] was “no binding (tested: 10 ug/mL)” each time. Also, the binding result in the test with biotin-peptide KNNVRQFAS is “no binding (tested: 10 ug/mL)”.
